The target of assay [1] is T1, PtoCPNα (Picrophilus oshimae, UniProt Q6L132, D139G/S260C/C290S).
T1 construct: gene PTO0735; full length, untagged, pET23b in E. coli BL21(DE3); reassembled homo-oligomer (hexadecamer, 914 kDa); D139G from cloning; forward primer encodes MITGQTPILILKEGTERQ; locus assigned by printed order (other locus PTO1195)
T1 sequence (Q6L132 1-546 D139G/S260C/C290S): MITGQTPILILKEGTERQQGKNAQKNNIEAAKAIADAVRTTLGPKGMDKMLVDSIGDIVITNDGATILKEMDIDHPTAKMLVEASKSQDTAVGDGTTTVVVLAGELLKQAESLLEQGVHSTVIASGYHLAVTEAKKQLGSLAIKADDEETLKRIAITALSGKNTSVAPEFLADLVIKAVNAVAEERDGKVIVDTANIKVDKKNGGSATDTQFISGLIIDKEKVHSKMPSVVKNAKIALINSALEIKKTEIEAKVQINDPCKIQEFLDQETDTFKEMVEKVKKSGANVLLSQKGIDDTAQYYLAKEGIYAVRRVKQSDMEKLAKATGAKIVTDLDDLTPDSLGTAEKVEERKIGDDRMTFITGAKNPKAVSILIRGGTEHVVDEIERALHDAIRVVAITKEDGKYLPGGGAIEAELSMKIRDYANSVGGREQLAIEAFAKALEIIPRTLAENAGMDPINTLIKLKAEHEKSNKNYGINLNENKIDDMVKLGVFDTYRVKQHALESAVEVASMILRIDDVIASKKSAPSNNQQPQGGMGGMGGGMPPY
Put plainly: fluorescence change of fluorescein on Cys260. It is filed as binding. The note with it: 1 mM ATP, 50 nM chaperonin, 50 mM Tris-HCl pH 7.5, 25 mM MgCl2, 100 mM KCl, 60 °C; protein labelled with fluorescein 5-maleimide.

In assay [2] the target is T2, PtoCPNα (Picrophilus oshimae, UniProt Q6L132, D139G).
T2 construct: gene PTO0735; full length, untagged, pET23b in E. coli BL21(DE3); reassembled homo-oligomer (hexadecamer, 914 kDa); D139G from cloning; forward primer encodes MITGQTPILILKEGTERQ; locus assigned by printed order (other locus PTO1195)
T2 sequence (Q6L132 1-546 D139G): T1 sequence (Q6L132 1-546 D139G/S260C/C290S) with C260S, S290C
Put plainly: ATP-dependent refolding of acid-denatured GFP. The note with it: 1 mM ATP, 50 mM Tris-HCl pH 7.5, 25 mM MgCl2, 100 mM KCl, 50 °C (figure legend: 60 °C). It is filed as biochemical.

For assay [3], the target named is β type group II CPN of Picrophilus torridus (Picrophilus torridus). As to the kind of experiment: SEC-MALS; WTC-100S5 column, 25 °C, 50 mM Tris-HCl pH 7.5, 25 mM MgCl2, 0.2 mM ATP, 300 mM (NH4)SO4, 1 mM DTT, 1.0 mL/min; purified oligomers. On the technique in general: In gel filtration, larger molecules generally elute earlier.
For assay [4], the target named is Green fluorescent protein, acid-denatured [GFP: P42212]. As to the kind of experiment: GFP releasing assay (recovery of GFP fluorescence, fit of two consecutive steps); acid-denatured GFP captured by 400 nM PtoCPNα at 60 °C for 5 min in HKM buffer with 1 mM DTT, then diluted 10-fold into the same buffer at 30 °C; k1 is the release of denatured GFP.
Assay [5] shares this target. Put plainly: GFP releasing assay (recovery of GFP fluorescence, fit of two consecutive steps); acid-denatured GFP captured by 400 nM PtoCPNα at 60 °C for 5 min in HKM buffer with 1 mM DTT, then diluted 10-fold into the same buffer at 50 °C; k1 is the release of denatured GFP.
In assay [6] the target is α type group II CPN of Picrophilus torridus (Picrophilus torridus). As to the kind of experiment: SEC-MALS; WTC-100S5 column, 25 °C, 50 mM Tris-HCl pH 7.5, 25 mM MgCl2, 0.2 mM ATP, 300 mM (NH4)SO4, 1 mM DTT, 1.0 mL/min; purified oligomers.

Residue numbers refer to the chain shown, from its start.

Regarding `Nc1ncnc2c1ncn2[C@@H]1O[C@H](COP(=O)(O)OP(=O)(O)OP(=O)(O)O)[C@@H](O)[C@H]1O` [ATP], the “% decrease in maximal fluorescence intensity” value at PtoCPNα [1] was ~ 15.5%. The “ATP-dependent refolding of acid-denatured GFP” value on PtoCPNα [2] is given as “enhances its refolding in an ATP‐dependent manner”.
In general, stoichiometry N refers to a count of units in the complex or per binding partner. Regarding “β type group II CPN of Picrophilus torridus (complex)”, the stoichiometry N in assay [3] is 14.
A word on the koff: it is the rate constant with which the complex falls apart. As for “α type group II CPN of Picrophilus torridus (complex)”, the results for the koff in assay [4] and in assay [5] were 0.478 s⁻¹ and 0.118 s⁻¹, respectively. In assay [6], this compound displayed a stoichiometry N of 16.

(Values after publication PMC4932455, “Characterization of group II chaperonins from an acidothermophilic archaeon Picrophilus torridus” (FEBS Open Bio, 2016).)
